# Data taken from PMC9416875, “Structural basis for non-canonical integrin engagement by Bordetella adenylate cyclase toxin” (Cell reports, 2022).
# B1: M1F5 Fab (anti-ACT RTX domain antibody M1F5) (Fab, V domains shown)
# VH: QVQLKQSGPELVKPGASVRMSCKGSGYSFTFHNIHWVKQRPGQGLEWIGWIYPGDGNTKYNEKFKGKTTLTVDKSSNTAYMLLSSLTSEDSAIYFCAYGNYYFDQWGQGTTLTVSS
# VL: IQMMQSTSSLSASLGDRVTISCSASQGITNYLNWYQQKPDGTVKLLIYYTSSLHSGVPSRFSGSGSGTDYSLTISNLEPEDIATYYCQQYSNLPWTFGGGTKLEIK
# notes: also called M1F5 antibody; M1F5 IgG
# Molecular target: RTX751 (Bordetella pertussis adenylate cyclase toxin, ACT, residues 751-1,706) (Bordetella pertussis, UniProt P0DKX7)
# Test: […], room temperature 20 min; […]; 20 mM Tris pH 7.5, 150 mM NaCl, 1 mM CaCl2, 1 mM MgCl2; […]
# Conditions: both partners purified
binder,measurement,value
B1,stoichiometry N,1
